Values quoted from earlier work in patent publication US7037697B2, “Isozyme of autoclavable superoxide dismutase (SOD), a process for the identification and extraction of the SOD and use of the said SOD in cosmetic, food, and pharmaceutical compositions” (Council of Scientific & Industrial Research, priority 2000, dated 2006).

Settings: Cu/Zn-SOD, Bonaccorsi di Patti et al. 1994

| Molecule | conformational melting temperatures |
| --- | --- |
| ox: Cu/Zn-SOD from ox | 88.05 °C |
| yeast: Cu/Zn-SOD from yeast (protein, UniProt P00445 2-154, looked up) Superoxide dismutase [Cu-Zn]: VQAVAVLKGDAGVSGVVKFEQASESEPTTVSYEIAGNSPNAERGFHIHEFGDATNGCVSAGPHFNPFKKTHGAPTDEVRHVGDMGNVKTDENGVAKGSFKDSLIKLIGPTSVVGRSVVIHAGQDDLGKGDTEESLKTGNAGPRPACGVIGLTN | 73.1 °C |
